In patent US20220024979A1 (NANYANG TECHNOLOGICAL UNIVERSITY, published 2022):

Molecular target: the molecule itself
Experiment: solution 2D 1H-1H NOESY NMR, 20 mM peptide
Description: NMR: All solution state NMR experiments were carried out on a Bruker 700 MHz spectrometer equipped with a cryoprobe. NMR data were processed with TOPSPIN (Bruker), then analysed using Sparky (W. Lee et al. Bioinfo. 2015, 31, 1325) programs. 0.5 mM or 20 mM GV8 peptides were dissolved in water, pH 6.8 with 10% D₂O for deuterium lock and DSS for signal reference. Two dimensional (2D)¹H-¹H TOCSY and NOESY spectra were acquired with 80 ms and 200 ms mixing times, respectively. In order to monitor hydrogel formation, 1D ¹H spectrum and a series of 2D ¹H-¹H NOESY spectra were recorded every four hours for 20 hours using the 20 mM peptide solution. For H/D exchange experiments, 0.5 mM and 20 mM peptide samples were dissolved in 100% D₂O and 2D ¹H-¹H TOCSY spectra were recorded at 30 min intervals. The extrinsic exchange rates were obtained by fitting the peak intensity vs. time to a single-exponential decay equation. The protection factor were calculated as the ratio of intrinsic exchange rates (calculated from SPHERE (Bai et al. Proteins. 1993, 17, 75)) to the extrinsic exchange rates. […] Amide temperature coefficients were also determined by recording 1D ¹H spectra of 0.5 mM and 20 mM GV8 peptide at 298 K, 303 K, 308 K and 313 K. Amide proton chemical shift deviations were fitted linearly against temperature and the temperature coefficients were calculated as σδHN/ΔT (ppb K⁻¹).

B1: Ac-GLYGGYGV-NH2 (GV8) peptide (peptide)
peptide: Ac-GLYGGYGV-NH2
notes: Synthetic 8-residue peptide, a repeat derived from suckerin-19; It is entered only for its self-association (dimer or oligomer in solution at 20 mM, antiparallel beta-sheets in the hydrogel); For the ssNMR experiments the peptide was uniformly 13C-15N labelled
B1: binds.
